B1: library; numbered along this chain (parent)
chain: MNIQIGELAKRTACPVVTIRFYEQEGLLPPPGRSRGNFRLYGEEHVERLQFIRHCRSLDMPLSDVRTLLSYRKRPDQDCGEVNMLLDEHIRQVESRIGALLELKHHLVELREACSGARPAQSCGILQGLSDCVCDTRGTTAHPSD

Variants of B1 are the subject of series [1]. Kind of series: sfGFP reporter fluorescence (15 h) (µM FITC); higher = higher leak. Particulars: library round: Round 1; ligand: none. On the procedure:
(§1)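 Cell-free biosensing: 1 µL Echo-assembled CFE reactions with linear PbrR variant templates (5 nM) and pPbrR-sfGFP reporter, with 1 µM Pb, 30 µM Zn or no ligand; endpoint sfGFP fluorescence after 15 h at 30 °C calibrated as µM FITC. Round 1 ML-predicted PbrR mutants; 3 biological replicates.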

In series [2] the parent is B1. In words: sfGFP reporter fluorescence (15 h) (µM FITC); higher = stronger transcriptional activation. Particulars: library round: Round 1. The method, then:
as §1

Here are results for 44 variants from the supplement of paper PMC12783771.

± gives the standard deviation of the averaged measurements.

As for D131C P143A, the sfGFP reporter fluorescence in series [1] worked out at 0.0583 ± 0.0013; in series [2] (ligand: 1 µM Pb), 0.0696 ± 0.0017; in series [2] (ligand: 30 µM Zn), 0.141 ± 0.011.
Regarding V108L R111L, the sfGFP reporter fluorescence in series [1] was 0.0611 ± 0.00085; in series [2] (ligand: 1 µM Pb), 0.0617 ± 0.0045; in series [2] (ligand: 30 µM Zn), 0.114 ± 0.0047.
The like results for N83T L107C G128I were, in that order, 0.195 ± 0.0097, 0.702 ± 0.17 and 1.75 ± 0.2.
For N83T L107C G128M, in that order: 0.432 ± 0.012, 1.31 ± 0.1 and 2.39 ± 0.53.
The like results for N83T V108L D131C were, in that order, 0.06218 ± 0.00042, 0.0745 ± 0.0076 and 0.0858 ± 0.0057.
Regarding E94Y P143C, the sfGFP reporter fluorescence in series [1] was determined as 0.0629 ± 0.0031; in series [2] (ligand: 1 µM Pb) it was 0.0621 ± 0.0044; in series [2] (ligand: 30 µM Zn), 0.0906 ± 0.0035.
The like results for G128I D131S were, in that order, 0.0878 ± 0.004, 0.253 ± 0.025 and 1.43 ± 0.2.
The like results for G128I D131E were, in that order, 0.0825 ± 0.0029, 0.203 ± 0.022 and 1.34 ± 0.037.
In the case of G128I D131C, the sfGFP reporter fluorescence in series [1] worked out at 0.0762 ± 0.0028; in series [2] (ligand: 1 µM Pb), 0.146 ± 0.018; in series [2] (ligand: 30 µM Zn) it was 0.618 ± 0.011.
For L107C G128H, in that order: 0.132 ± 0.0069, 0.409 ± 0.075 and 1.66 ± 0.14.
The like results for N83T I90S were, in that order, 0.0629 ± 0.0014, 0.0715 ± 0.0022 and 0.109 ± 0.0024.
The like results for N83T L110W were, in that order, 0.0601 ± 0.0015, 0.0593 ± 0.0024 and 0.0597 ± 0.00097.
With R111I C134P, the sfGFP reporter fluorescence in series [1] amounted to 0.0589 ± 0.0022; in series [2] (ligand: 1 µM Pb), 0.0683 ± 0.0031; in series [2] (ligand: 30 µM Zn), 0.228 ± 0.0041.
On to E109A D131C, for which the values for the sfGFP reporter fluorescence in series [1], in series [2] (ligand: 1 µM Pb) and in series [2] (ligand: 30 µM Zn) were 0.0641 ± 0.0019, 0.0804 ± 0.0035 and 0.462 ± 0.0051, respectively.
As to N83T E109A P143Y, the sfGFP reporter fluorescence was 0.0646 ± 0.0022 in series [1], 0.0776 ± 0.0092 in series [2] (ligand: 1 µM Pb) and 0.179 ± 0.017 in series [2] (ligand: 30 µM Zn).
The like results for R96A K104V G128M were, in that order, 0.0678 ± 0.0023, 0.0902 ± 0.0061 and 0.257 ± 0.008.
With E109L G128H P143L, the sfGFP reporter fluorescence in series [1] stood at 0.0639 ± 0.00092; in series [2] (ligand: 1 µM Pb), 0.0852 ± 0.0089; in series [2] (ligand: 30 µM Zn) it was 0.204 ± 0.018.
With D131A P143L, the results for the sfGFP reporter fluorescence in series [1], in series [2] (ligand: 1 µM Pb) and in series [2] (ligand: 30 µM Zn) were 0.07208 ± 0.00056, 0.0969 ± 0.0024 and 0.559 ± 0.0079, respectively.
The like results for N83T H89Q were, in that order, 0.0608 ± 0.0025, 0.0955 ± 0.011 and 0.258 ± 0.013.
In the case of H105E, the sfGFP reporter fluorescence in series [1] amounted to 0.0625 ± 0.0011; in series [2] (ligand: 1 µM Pb), 0.06829 ± 0.00056; in series [2] (ligand: 30 µM Zn) it was 0.31 ± 0.016.
For G128L D135A, the sfGFP reporter fluorescence in series [1] is 0.075 ± 0.0011; in series [2] (ligand: 1 µM Pb), 0.155 ± 0.011; in series [2] (ligand: 30 µM Zn) it was 0.981 ± 0.14.
For M84A G124A, in that order: 0.0619, 0.064 ± 0.0056 and 0.143 ± 0.0022.
The like results for K104V D135A were, in that order, 0.0696 ± 0.0011, 0.123 ± 0.0063 and 0.678 ± 0.073.
On to G128I D135P, for which the values for the sfGFP reporter fluorescence in series [1], in series [2] (ligand: 1 µM Pb) and in series [2] (ligand: 30 µM Zn) were 0.074 ± 0.0013, 0.172 ± 0.013 and 0.904 ± 0.084, respectively.
For G128I D135A, in that order: 0.0699 ± 0.0036, 0.12 ± 0.0083 and 0.64 ± 0.032.
The like results for N83T K104R D135K were, in that order, 0.0682 ± 0.00097, 0.0845 ± 0.0083 and 0.149 ± 0.0056.
For N83T I97T, in that order: 0.06157 ± 0.00037, 0.0658 ± 0.0032 and 0.102 ± 0.0039.
With N83T I97N, the sfGFP reporter fluorescence in series [1] was 0.06206 ± 0.00056; in series [2] (ligand: 1 µM Pb), 0.064 ± 0.0017; in series [2] (ligand: 30 µM Zn) it was 0.0862 ± 0.0011.
The like results for N83T I97H were, in that order, 0.0607 ± 0.0023, 0.0635 ± 0.00085 and 0.0778 ± 0.0044.
Consider N83T I97G, for which the sfGFP reporter fluorescence amounted to 0.06365 ± 0.00056 in series [1], 0.0646 ± 0.0051 in series [2] (ligand: 1 µM Pb) and 0.0965 ± 0.0021 in series [2] (ligand: 30 µM Zn).
With N83T I97C, the sfGFP reporter fluorescence was found to be 0.0623 ± 0.0016 in series [1], 0.063 ± 0.0038 in series [2] (ligand: 1 µM Pb) and 0.109 ± 0.0073 in series [2] (ligand: 30 µM Zn).
For I125L D131C, in that order: 0.06 ± 0.0018, 0.0617 ± 0.0015 and 0.0593 ± 0.0014.
The like results for N83T D131S P143Y were, in that order, 0.0614 ± 0.0015, 0.0782 ± 0.0092 and 0.144 ± 0.014.
As for N83T D131S P143A, the values for the sfGFP reporter fluorescence in series [1], in series [2] (ligand: 1 µM Pb) and in series [2] (ligand: 30 µM Zn) were 0.059 ± 0.0033, 0.0792 ± 0.0071 and 0.156 ± 0.017, respectively.
For M84Q R111L, in that order: 0.0624 ± 0.0054, 0.0651 ± 0.0026 and 0.122 ± 0.0058.
Regarding M84A I97G, the sfGFP reporter fluorescence in series [1] was 0.05986 ± 0.00042; in series [2] (ligand: 1 µM Pb), 0.0617 ± 0.0011; in series [2] (ligand: 30 µM Zn) it was 0.218 ± 0.017.
Turning to I90L G128T D135A, the sfGFP reporter fluorescence in series [1] was found to be 0.0632 ± 0.00092; in series [2] (ligand: 1 µM Pb), 0.0679 ± 0.0048; in series [2] (ligand: 30 µM Zn), 0.266 ± 0.031.
The like results for N83T V108N were, in that order, 0.06328 ± 0.00021, 0.0698 ± 0.0061 and 0.132 ± 0.0091.
The like results for N83T L107C G128M D135A were, in that order, 0.561 ± 0.031, 1.15 ± 0.069 and 2.06 ± 0.28.
For E109H D131C, in that order: 0.0634 ± 0.0019, 0.0764 ± 0.0062 and 0.159 ± 0.017.
V108L C114L: the sfGFP reporter fluorescence in series [1] turned out to be 0.05962 ± 0.00056; in series [2] (ligand: 1 µM Pb), 0.0571 ± 0.003; in series [2] (ligand: 30 µM Zn) it was 0.0589 ± 0.0018.
For N83T L107E, in that order: 0.0668 ± 0.00076, 0.0635 ± 0.0022 and 0.0662 ± 0.0024.
For N83T L107C, in that order: 0.1001 ± 0.00064, 0.518 ± 0.13 and 1.53 ± 0.15.
With N83T L107Y, the values for the sfGFP reporter fluorescence in series [1], in series [2] (ligand: 1 µM Pb) and in series [2] (ligand: 30 µM Zn) were 0.0672 ± 0.0015, 0.0739 ± 0.0066 and 0.0947 ± 0.0046, respectively.
